According to the nanobody polyreactivity screen of Harvey et al. (2022):

test: yeast display, Sf9 membrane polyspecificity reagent, FACS + sequencing; frameworks hold sequencing errors
Outline: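 Using colony PCR, genes from sorted yeast display clones were amplified, then sequenced on MiSeq at 2 × 250 and filtered by CDR length. The clones had been stained with 10% biotinylated, detergent-solubilized Sf9 membrane reagent for 1 hour at 4 °C and sorted by FACS into low and high (top ~1%) gates on anti-HA and streptavidin fluorescence. Polyreactivity labels come from the gate of origin.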

Row | Sequence | polyreactivity (PSR sort gate)
1 | QVQLEESGGGLVQAGGSLRLSCAASVFPYYAMRWYRQATGKERELVAAITWSGADTYYADSVKGRFTISRDNAKNTVYLQMNSLKPEDTAVYYCAAEYSPIRDYEYWGQGTQVTVSS | low polyreactivity
2 | QVQLEESGGGLVQAGGSLRLSCAASYAMGWYRQAPGKERELVATITRTDRTNYADSVKGRFTISRDNAKNTVYLQMNSLKPEDTAVYYCNKVDWSAPGDSPKYGYWGQGTQVTVSS | low polyreactivity
3 | QVQLEESGGGLVQAGGSLRLSCAATGRIFSYAMGWYRQAPGKETELVAGISRSGGSTYYADSVKGRFTISSDNAKITVYLQMNSVKPEDTAVYYCARYDRGGRHYYYWGQGTQVTVSS | high polyreactivity
4 | QVQLEESGGGLVQAGGSLRLSCAATGSLFYTYSMGWYRQAPGKERELGASIRSDGITNYADSVKGRFTISRDNAKNTVYLQMNSLKPEDTAVYYCAARIIWSTNYYYWSGYNSWGQGTQVTVSS | high polyreactivity
5 | QVQLEESGGGLVQAGGSLRLSCAAYGSIFSPYAMGWYRHAPGKERELVAAISGRGTSTYYADSVKGRFTISRDNAKNTVDLQMNTLKPEDTEVYYCAAVSYGRSGYDYWGQGTQVTVSS | high polyreactivity
6 | QVQLEESGGGLVQAGGSLRLSCADSGSTFYTNAMGWYRQAPGKERELVAAISASVGSTYYADSVKGRFTISRDNAKNTVYLQMNILKPEDTAVYYCAAYVWDSRRYDYWGQGTQVTVSS | low polyreactivity
7 | QVQLEESGGGLVQAGGSLRLSCAGSGGIFDVYAIGWYRPAPGKERELVAAITASGGSTYYADSVQGRFTISRDNAKNTVYFQMNSLKPEDTAGYYCAVQGFRYHSREYDYWGQGTQVTVSS | low polyreactivity
8 | QVQLEESGGGLVQAGGSLRLSCAPSGFIFAWYAMGCYRQAPGKERELVATISSSGARTYYADSVKGRFTISRDNAKNTVYLQMNSLKPEDTAVYYCAVGSVGRLKFYYWGQGTQVTVSS | high polyreactivity
9 | QVQLEESGGGLVQAGGSLRLSCAPSGRIYNRNAMGWYRQAPGKERELVASISSGGRTNYADSVKGRFTISRDNAKTTVYLQMNSLKPEDTAVFYCAGNSPRFLLDYWGQGTQVTVSS | low polyreactivity
10 | QVQLEESGGGLVQAGGSLRLSCASSGSTFATYAMGWDRQAPGKERELVAGISKRGGRTYYADSLKGRFTISRDNAKNTVYFQMNSLKPEDTAVYYCARYSPYYRVKDYDSWGQGTQVTVSS | high polyreactivity
11 | QVQLEESGGGLVQAGGSLRLSCASSGYIFATYAMGWYRQAPGKERELVAAITSTGSTYYADSVKGRFTISRDNAKNTVYLQMNSLKPEDTAVYYCAAVSGYRARYYLYYYWGQGTQVTVSS | high polyreactivity
12 | QVQLEESGGGLVQAGGSLRLSCPASGRTSYGNTMGTYRQAPGKERELVATISGGGSTNYADSVKGRFTISRDNAKNTVYLQMNSLKPEDTAVYYCAARRYPFPGYRYYFWGQGTQVTVSS | high polyreactivity
13 | QVQLEESGGGLVQAGGSLRLSCSASGLILHGYAMGWYRQAPGKERELVAAITRSGGRTYYADSVKGRFTISRDNAKYTVYLQMNSLKPEDTAVYYCAALGWSGRYRYDYWGQGTQVTVSS | high polyreactivity
14 | QVQLEESGGGLVQAGGSLRLSCSASGRIFSRNAMGWYRQAPGKERELVAAIRPRGGTTYYADSVKGRFTISRDNAKNTVYLQINSLKPYDTAVYYCATGGGRNSTDRRRLHYTYYYWGQGTQVTVSS | low polyreactivity
15 | QVQLEESGGGLVQAGGSLRLSCSASGSIFRGYAMGWYRQAPGKERELVAAITSGGRTNYADSVKGRFTISRDNAKITVYLQMNSLKPEVTAVYYWIAGFRFYAYSRIAGEDYWGQGSQVTVSS | low polyreactivity
16 | QVQLEESGGGLVQAGGSLRLSGAASGYTFGHYGMGWYRQAPGKERELVAAINSGGSTNDADSVKGRFTISRDNAKNTVYVQMNSLKPEDTAVYYCAADHSGGSRYDYWGQGTLVTVSS | low polyreactivity
17 | QVQLEESGGGLVQAGGSLRLSSAASGGIFDVSHMGWYRQAPGKERELVAAISENGGSTYYADSVKGRFTISRDNAKNTVYLLMNSLKPADTAVYYCAADYVSLSVFSYWAWYDYWGHGTQVTVSS | low polyreactivity
18 | QVQLEESGGGLVQAGGSLRLSSAASGRIYTKNAMGRYRHAPGKERELVAAITTSGGSTYYADSVKGRFTISRDNAKNSVYLQMKSLKPEDTAVYYCAAERYNGYDYWGQGTQVSVSS | high polyreactivity
19 | QVQLEESGGGLVQAGGSLRLTCAASGSIFDYNAMGWYRQAHGKERELVAAITSGGITYADSVKGRFTISRDNAKNTVYLQMNSLKPEDTAVYYCAALDKLSKYRRYRYGYWGQGTQVTVSS | high polyreactivity
20 | QVQLEESGGGLVQAGGSLRLTCAASGSTVDKNDMGWYRPEPGQESELVAASTSSGSSTYYADSVKGRFTISRDNAKNTVYLQMNSLKPEDTAVYYCAADKYYYDRLSPSGDYLGQGTQVTVSS | low polyreactivity
21 | QVQLEESGGGLVQAGGTLRLRCAASVIIYDDKTMGWYRQAPGKEMELVAPISSSRGSTYYADSVKGRFTISRDNAKNTVYLQMNSLKPEDTAVYYCAAAVYYTYPYIVFRNYPEFDYWGQGTQVSVSS | low polyreactivity
22 | QVQLEESGGGLVQAGGTLRLSCAASGIIFDGNAMVWYRQAPGKERELVASITSDSSTNYADSVKGRFTISRDNAKNTVYLQMNSLKPEDTAVYYCAADHWIAPRRDYWGQGSQVTVSS | low polyreactivity

Row | Sequence | polyreactivity (PSR sort gate)
23 | QVQLEESGGGLVQAGRSLRLSCAASGRIFWRYVMGWYRQAPGKERELVAAINRNGDNTSYADSVKGRFTISRDTAKNTVYLQMNSLKPEHTEVHYCNADWWWGYGYWGQGTQVSVSS | low polyreactivity
24 | QVQLEESGGGLVQAVGIIRLSCGASVSIFDAYAIGWYRKAPGKETELVASITYGGRTNYADSVEGRFTISRDNAKNTVYLQMNSLKPEDTAVYYCAAGGGYYYRYHRYPRGYWGQGTQVTVTS | high polyreactivity
25 | QVQLEESGGGLVQEGGSLRISCAASGRTFLRYVMGWYRQAPGKERALVAAISSRGGSTYYADSVKGRFTISRDNAKNTVYLQMNSLKPEDTAVYYCAARFKVRDYPDGNYEYWGQGTQVTVSS | high polyreactivity
26 | QVQLEESGGGLVQEGGSLRLSCAASGSIFTQNARGWNRQAPGKERELVAAITISGGGTYYADSVKGRFTISRDNAKNTVYFQMNSQKPEDTAVYHCAAAGRARYYYRYGYWGQVTQVTVSS | low polyreactivity
27 | QVQLEESGGGLVQPGGSLRLRCAASGITFYWNAMGWYRQAPVKERELVAGITNSGGGTYYADSVKGRFTISRDNSMYTVYLLMNSLKPEDSAVYYCAAEPTSWYFFYYVGDYLGQGTQVTVSS | high polyreactivity
28 | QVQLEESGGGVVQAGGSLRLSCAASGRIFDRYDMARYRQAPGKERELVASISSGGSTYYADSVKGRFTISRVTAKNPVYLQMNSLKPEDTAVYYCNAEARSRRYRYDYWGQGTQVTVSS | high polyreactivity
29 | QVQLEESGGRLLQAGGSLRLSCAASGCTFGSYDMGLYRQAPGKERELVARISSDGSTNYADSVKGRFSISRDNAKNTVYLQMNSLKPEDTAGYYCARDRKRQADDIGEFDYWGQGSQVTVSS | low polyreactivity
30 | QVQLEESGGRLVQAGGSLRLSCAASGFTFRYYAMGWYRQAPGKERELVAAITSGGSTNYADSVKGRFTISRDNAKNTVYLQMNSLKPEDTAVYYCKKVPWGSRRMDYWGQGTQVTVSS | high polyreactivity
31 | QVQLEESGGRLVQAGGSLRLTCAASGRTYARYAIGWNRQAPGKERQLVAAISRGGTTNYADSVKGRFTISRDNAKNTVYLQMNSLKPEDTAVYYCNRDFHLIHLSSARLDYWGQGTQVTVSS | low polyreactivity
32 | QVQLEESGGSLVQAAGSLRLSCAASGSIFSPYAMGWYRQAPGKERELVAAITWRGGTFYADSVKGRFTISRDNAKNTVDLQMNSLKPEDTAVYYCNARFGQTVKGTYGRYYYWGQGTHVTVSS | high polyreactivity
33 | QVQLEESGGVLVQAGGSLRLSCAASGSNFYLYAMGWYRQAPGKERELVAGITRSGGRTYYADSVKGRFTISRDNAKNTVYLQMNSLKPEDTAVYYCAAYLVVRIRYTQRYDYWGQGTQVTVSS | low polyreactivity
34 | QVQLEESGRGLVQAGGSLPLIFAASGSIIRGYAMGWYRPAPGKERELVAAINWSGSSTYYADSVKGRLTISRDNAKNTVNLQMNSLIPEDTAVYYCALVYYNRNLGGDYWGQGTKVTVSS | low polyreactivity
35 | QVQLEESGRGLVQAGGSLRLSCAASGSISGYYAMGWYRQAPGKERELVAVITSSGTSTYYADSVKGRFTISRDNAKNTVYLQMNSLKPEDTAVYDCWGQGTQVTVSS | low polyreactivity
36 | QVQLEESGRGLVQAGVSLRLSCAASGSTFYRYAMGWYRQAPGKERELVAANSQSGARTYYADSVKGRFTISRDNAKNTVYLQINSLKPEDTAVYYCAAYPVVNEFDYWGQGTQVTVSS | high polyreactivity
37 | QVQLEESGVGLVQAGGSLRFSCAASGRIFYSYAMGCDRQAPGKERELVATISSAGSTYYADSVKGRFTISRDNAKNTVYLQMNSLKPEDTAVYYCAARRPRRYGYWGLGTQVTVSS | high polyreactivity
38 | QVQLEESGVGLVQAGGSLRLSCAASGRTFHIYAMGWYRQAPGKERELVADIRGRSGSTYYADSVKGRFTISRDNAKITVYLQMNSLKPEDTAVYYCAVGRYPYCSARYRFDYWGQGTQVSVSS | high polyreactivity
39 | QVQLEESGVGLVQAGGSLRLSCAASGSTFQTYVMGWYRQAPGKERELVAAISSGGSTNYADSVKGRFTISRDNAKNTVYLQMNSLKPEDTAVYYCAKRWPYFRRGKDGYWGQGTQVTVSS | low polyreactivity
40 | QVQLEESGVGLVQAGGSLRLSCAASGYTFDYYDMAWYRQAPGKERELVAAISCSGGRTYYADSVKGRFTISRDNAKNTVYLQMNSLKPEDTAVYYCNTRYGALGKGGMDYWGQGTQVTVSS | high polyreactivity
41 | QVQLEESRGGLVQAGGSLRLSFAAYGFTYFGYAMGWYRQAPGKERELVAAISTIDGDTYYADSVKGRFTISRDNAKNTFYLLMNSLKPEDNAFYYCAADDYIDGDDYWGQGTQVSVSS | low polyreactivity
42 | QVQLEETGGGLVQAGGSLRLSCAASGITFGDYAMGWYRQAPGKERELVAAISFTGASTYYADSVKWRFTISRDNAKNTVYLLMNSLKPDDTPVYYCAADPYVPYQDFLSGFDFWGQGTQVTVSW | low polyreactivity
43 | QVQLEQSGGGLVQAGGSLRLSCAASGRTFVSNAMGWYRQAPGKERELVADITSGGSTDYADSVKGRFTISRDNANNTVYLQMNSLKPEDTAVYYCATDLWRWYGWFDYWGQGTQVTVSS | low polyreactivity
